This note sets out measurements from article PMC7327492 (2020).

One may read the Kd as the equilibrium constant for the complex coming apart.

First the molecules themselves.
B1: His-tagged 2x(LxxIxE) B56 inhibitor (designed binder)
chain: TGSTGSTGSTGSTGSLPRSSTLPTIHEEEELSLCTGSTGSTGSTGSTGSLPRSSTLPTIHEEEELSLC
B2: His-tagged 4x(LxxIxE) B56 inhibitor (designed binder)
chain: TGSTGSTGSTGSTGSLPRSSTLPTIHEEEELSLCTGSTGSTGSTGSTGSLPRSSTLPTIHEEEELSLCTGSTGSTGSTGSTGSLPRSSTLPTIHEEEELSLCTGSTGSTGSTGSTGSLPRSSTLPTIHEEEELSLC

In the assay the target is Recombinant B56α (UniProt Q15172 1-486). Nature of the assay: ITC.
Chain of Recombinant B56α (Q15172 whole entry): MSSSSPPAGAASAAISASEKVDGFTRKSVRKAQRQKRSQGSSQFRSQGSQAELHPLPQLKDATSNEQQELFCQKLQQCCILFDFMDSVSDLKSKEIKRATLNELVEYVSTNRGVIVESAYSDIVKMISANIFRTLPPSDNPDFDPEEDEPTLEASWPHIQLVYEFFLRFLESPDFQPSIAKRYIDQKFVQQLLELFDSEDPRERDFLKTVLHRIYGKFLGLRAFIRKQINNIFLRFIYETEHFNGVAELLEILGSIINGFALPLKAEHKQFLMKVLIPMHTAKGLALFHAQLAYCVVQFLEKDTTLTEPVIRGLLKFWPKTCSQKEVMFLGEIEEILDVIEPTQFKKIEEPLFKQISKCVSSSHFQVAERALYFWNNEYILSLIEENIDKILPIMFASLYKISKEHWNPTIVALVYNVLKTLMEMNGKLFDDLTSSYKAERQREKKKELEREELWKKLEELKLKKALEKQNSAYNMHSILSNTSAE
On to TGSTGSTGSTGSTGSLPRSSTLPTIHEEEELSLC (designed binder) [His-tagged 1x(LxxIxE) B56 inhibitor], for which the dissociation constant (Kd) was determined as 1300 nM. As for B1, the figure is 200 nM; as for B2, 100 nM.
